± gives the uncertainty stated by the source.
Test: amyloid nucleation score (Sup35N fusion, yeast selection) (log enrichment); library NNK1; higher = more nucleation; inactive = no reads after selection
Method in brief: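 After 24 hours of induction with 100 μM copper sulfate, psi-negative yeast expressing peptides of 20 random codons fused to Sup35N were grown for 7 days at 30°C on medium lacking adenine and uracil. Input and output plasmid inserts were sequenced with Illumina, and sequences with under 100 input reads were discarded. Scores for nucleation are the DiMSum log enrichment of output over input reads, centred on the mode score of non-aggregating sequences.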

| Substance | amyloid nucleation score |
| --- | --- |
| NDSNSPIFPGGDHPWCGFDW | 0.089 ± 0.88 |
| NDYEELIMYFKEDVF | 1.76 ± 0.5 |
| NECSGGLQKLLNRTTNSDLW | 0.185 ± 0.33 |
| NERSSEELAPLDTQWSMLRG | -0.124 ± 0.69 |
| NEVPCVRRWSCRGLCARELM | 0.429 ± 0.88 |
| NFCVSVVFP | 1.84 ± 0.54 |
| NFDYHTTTVGMELWSLGFSS | -0.585 ± 0.51 |
| NFHFVMGISVIRRLMSESQS | -0.366 ± 0.66 |
| NFLIANRSLDAVLMVQLPFV | -0.344 ± 0.98 |
| NFPFMFKCSPGNVHLVDIR | -0.535 ± 1.7 |
| NFVICNVMDRISWLCVCNLH | 4.08 ± 0.076 |
| NGCDIFSFGFYLLILFSLIQ | -0.196 ± 0.49 |
| NGCVLLMVMVLTVDIAL | 2.78 ± 0.18 |
| NGEILSTLDDVTMLRIRTTC | 0.071 ± 0.41 |
| NGFGAYVYNSYLRFGNLSRA | inactive |
| NGFLTSRCMLVCMKGMV | 0.729 ± 0.34 |
| NGFQLTILKDHGLVKRQSPR | inactive |
| NGLGFLNGRSSFGVGCYY | -0.486 ± 0.28 |
| NGMLFCT | 0.267 ± 0.79 |
| NGRLMVGMLHV | 0.719 ± 0.56 |
| NGTRYMEAIMEKSLC | 1.47 ± 0.4 |
| NGTTLVAVSYELPLSGVLSK | -0.798 ± 0.57 |
| NGVMESGNRRTLLRPTVVET | -0.016 ± 1.2 |
| NGVSTVEYVMFKFSIAFAMF | 6.583 ± 0.046 |
| NGYELYTDQGGQLVVCDESS | -2.07 ± 1.6 |

| Substance | amyloid nucleation score |
| --- | --- |
| NGYFYTTYASDVPRRYVPYL | 0.387 ± 0.33 |
| NHFGAYVVYGFIEHKKTGMW | 1.82 ± 0.19 |
| NHIQRVSTFVLAMSYYVRTV | -0.236 ± 1.2 |
| NHPTRPLTTQLGLAAQAKSG | -0.153 ± 0.47 |
| NIAYQTDSGVRLRFVTDSRG | inactive |
| NICTLYPT | 0.236 ± 1.1 |
| NICVFNEFKVYNAYTVYWGW | 5.801 ± 0.054 |
| NICWFGVSRLQKMEGLWTGA | 0.515 ± 0.67 |
| NIITVGNGSILMMVWSSEVN | 5.63 ± 0.08 |
| NIVFL | 0.021 ± 0.55 |
| NIVSALRYITPYYLAAYPIT | 0.025 ± 0.36 |
| NKAVKLQSDPMGALC | 0.701 ± 0.54 |
| NKLGLLRVFKVRFPPCCCCD | -0.266 ± 0.99 |
| NKTLV | inactive |
| NKVHSSFSLGGLPEARASDE | 0.966 ± 0.66 |
| NKVLCFK | inactive |
| NKWSRSGKRCAKMGNSCSDE | 1.49 ± 0.69 |
| NKWYVF | 0.071 ± 1.1 |
| NLALLEYVINSVSTMFYISN | 0.276 ± 0.24 |
| NLCSFFMFTIILGGNVGTFM | 7.208 ± 0.044 |
| NLDFLLFGIECIVKTCPFGY | 0.01 ± 0.44 |
| NLFCRRMSSDWALKSELSNH | 0.708 ± 0.36 |
| NLFVSYSTDNSSTFMWDSVR | 4.44 ± 0.058 |
| NLGLR | 4.49 ± 0.077 |
| NLGVVSIHDRHRYVAKVYSS | 0.844 ± 0.5 |

| Substance | amyloid nucleation score |
| --- | --- |
| NLILIR | 0.72 ± 0.61 |
| NLKADRFDHGSPEVVSLSFI | -0.027 ± 0.98 |
| NLKRPNELWINIETFIRSLH | 1.32 ± 0.38 |
| NLLWCIVGTKPWKVLTTVNY | -0.28 ± 0.38 |
| NLQVVYMSLV | 2.99 ± 0.14 |
| NLSGSFPN | -0.2 ± 0.92 |
| NLSSYGR | 0.798 ± 0.23 |
| NLTRHVDVANPAPRLPHLGV | -0.146 ± 0.46 |
| NLTTPIWDRSYCSYMNMMNS | 0.369 ± 0.42 |
| NLYFIHVSRMIWSNSV | 5.02 ± 0.075 |
| NMDGLAPISGSFYSRSGNFI | 0.964 ± 0.61 |
| NNFGFET | 0.671 ± 0.31 |
| NNGPIPNILKEL | 0.523 ± 0.41 |
| NNIVLDFLFGVSLHRFGPHH | 4.43 ± 0.14 |
| NNKDISYGREAGGYEVERKD | -0.907 ± 1.2 |
| NNKKNY | -0.505 ± 0.27 |
| NNLFYEIRM | 1.92 ± 0.17 |
| NNRIRRGGSVSVVMTVCDMD | 1.81 ± 0.34 |
| NNSYFMCNTLRRVLMGLLLG | 1.11 ± 0.65 |
| NNTDYLNCYTAICSSNTVAG | inactive |
| NPGIDYNERYWMG | -1.09 ± 1.1 |
| NPNFDRGQRSLQLDIMVKWR | 1.97 ± 0.19 |
| NPNTKYINCPHRVAFRGKLM | 0.552 ± 0.74 |
| NPRISCFVLQIRSAALSQSV | -0.007 ± 0.92 |
| NPSGFRSTEWYV | -0.421 ± 0.56 |

| Substance | amyloid nucleation score |
| --- | --- |
| NQACAFYNRLRFGK | 3.27 ± 0.14 |
| NQMGRRQRVLRSSDSRPTVL | -0.114 ± 0.74 |
| NQMVWMVELWRTVDCVVLNV | -0.17 ± 0.34 |
| NQTNIMCSPNIICSVSGQSG | 6.743 ± 0.047 |
| NQWCAFWYRESSRVYDCDWL | -0.478 ± 0.53 |
| NQYLDVGVRKSNAECKVPHE | inactive |
| NRCCVPTKATN | 0.27 ± 0.53 |
| NREGCIMWHRRVLARRCLTS | 0.145 ± 0.89 |
| NRFFSRVKKYPYTLSYPGFC | 0.065 ± 0.29 |
| NRNVYRSGVFGSGVWTRVER | 0.15 ± 0.45 |
| NRRMCFRCIFGFHVCKLNGW | -0.027 ± 0.5 |
| NRRVPLIHCYLMCGYTGTCW | 0.249 ± 0.4 |
| NRRVSLCRASCSIMRVKPLG | -0.261 ± 0.56 |
| NRSVRGVFLEGNVRFCWLRE | 1.21 ± 0.85 |
| NRWSGLSHRS | -1.63 ± 2.1 |
| NRYIRELGRKTYVLRKEFRG | -0.274 ± 1.2 |
| NSFRTGVLYSMESEGMAWWC | -0.044 ± 0.76 |
| NSGFRAASS | 2.02 ± 0.55 |
| NSLMFRPWTLGDF | -0.434 ± 1.7 |
| NSNARAGVLDLPSCRTVVIE | 0.68 ± 0.65 |
| NSRMMLGVLSSVAYGVRMVW | 0.651 ± 0.56 |
| NSSKAMKKQVHLLFFRK | 0.699 ± 0.42 |
| NSSSIQVANRARDV | inactive |
| NSTPLADRCSVGMLPALKAD | -0.351 ± 0.63 |
| NSYKCIWMSLGVV | -0.897 ± 0.38 |

| Substance | amyloid nucleation score |
| --- | --- |
| NSYLCCIWK | 7.32 ± 0.08 |
| NTAQVLYYL | -0.674 ± 0.22 |
| NTCHKIDSTI | -0.13 ± 0.59 |
| NTDLTNRSDYLYIV | -1.78 ± 1.2 |
| NTESLEFRSKKGGNCRAGLS | 0.495 ± 0.97 |
| NTIEGV | inactive |
| NTKSTPNTSVLFSLTTRI | 1.3 ± 0.15 |
| NTKTNGTSIGNSTVVLHLIA | 6.409 ± 0.057 |
| NTMGSNWYMVVNSWFVRRCS | -1.01 ± 1.2 |
| NTREVSVRETDCCKLTCMIA | 7.743 ± 0.043 |
| NVAFYVTVV | -0.049 ± 0.26 |
| NVAPSQSFPSLYCSE | inactive |
| NVDFLISQSRIFYIERLSSQ | 2.77 ± 0.16 |
| NVDWSPKRNINMGGWEKWLV | 0.261 ± 0.92 |
| NVGYTYGYRKNSADNMAFCV | inactive |
| NVMQKNLFGSCIILLSWSLS | 0.078 ± 0.26 |
| NVNWKWVGNTLVVSIMVEAN | inactive |
| NVRSFWFSGNQSNIGGICWG | 0.204 ± 0.43 |
| NVSFWFYPLSAFSRPFFGLH | 2.74 ± 0.28 |
| NVVHRLLWQSSVTSYIAVSY | 1.86 ± 0.14 |
| NVYFLPIMA | -1.06 ± 0.54 |
| NVYLGGLVQYFCQWLAGSIR | 0.59 ± 0.62 |
| NWDGLYVYEYSRFVVASCRN | 1.2 ± 0.2 |
| NWEKVNLLTLRNTFRCSSRA | 0.751 ± 0.27 |
| NWSEWGSRIHFKCWIEMLLR | 0.174 ± 0.55 |

| Substance | amyloid nucleation score |
| --- | --- |
| NYAAPVSCRGLADEGRSRTD | -0.4 ± 0.49 |
| NYETPGRFDKSVSTGEAFQS | -0.868 ± 0.55 |
| NYIVLFSSRDVCTHNMYKTV | 0.342 ± 0.71 |
| NYLGS | -0.481 ± 0.33 |
| NYMWSQPLLYFECGRDQWLA | 2.92 ± 0.11 |
| NYSDLKRGHRLDSADGWDGI | -0.613 ± 1.1 |
| NYSDYMWTRLANLA | -0.2 ± 0.72 |
| NYVPIWSGA | inactive |
| PALNRFLGTERDYDRYAGIA | -0.8 ± 0.49 |
| PAPPAQHIYVQRVYSFCQRG | -0.161 ± 0.9 |
| PATMDLIVVPWITVLKEIN | -0.451 ± 0.89 |
| PCDSICALFALSKHQVGGGW | 0.324 ± 0.55 |
| PCFYSSGDVVMNRGV | -0.507 ± 0.26 |
| PCGEKD | 0.559 ± 0.9 |
| PCLNRLVV | 0.386 ± 0.5 |
| PCLVGIDMVTMVAESLCGSG | -0.958 ± 1.3 |
| PDCLPPWSRRLLGNRVAIGL | 1.01 ± 0.57 |
| PDRDYFLFFTLHCVCSSFAE | inactive |
| PDSLFPLCFLRLWLISSIVR | 1.49 ± 0.84 |
| PECQSGCMV | -0.163 ± 0.41 |
| PFAGNHTMWKVPTWGKSWKG | -0.398 ± 0.7 |
| PFCRSRHAGHSRSLQVEKFM | -0.004 ± 0.29 |
| PFIDNRFKLFRSDGTVRWVI | inactive |
| PFNGSLFYYVSWVKTNYGYY | 0.225 ± 0.93 |
| PFVYGLCESFPFGCQYGWGC | inactive |

| Substance | amyloid nucleation score |
| --- | --- |
| PFYNSQ | -0.371 ± 0.41 |
| PGGSIRGFSRLSKLHWDRGE | 0.252 ± 0.4 |
| PGTGPVCQNGDVAF | -0.948 ± 1.7 |
| PGTSARRIDTKDVPYPFIPS | 1.16 ± 0.51 |
| PHSSFPESSCKGSGSVSWAE | -0.172 ± 0.74 |
| PIDGLPGASFGLGFQCGVGM | 0.527 ± 0.76 |
| PILMFTVCMSDSQTVLNFCS | 6.56 ± 0.047 |
| PINLLVLIAGNFYWLWTFGQ | 2.84 ± 0.15 |
| PIRPWAHYGMANWVQKAF | -0.763 ± 0.52 |
| PIVMCFFGKV | -0.201 ± 0.41 |
| PKNGGQTMAYK | -0.665 ± 0.6 |
| PLAHLSRLEESYWPSQTHPS | 0.091 ± 0.54 |
| PLDHLHLSKWCTSEKDLVV | 0.766 ± 0.38 |
| PLEVWNRGVGPIGCVCRGLK | 1.29 ± 0.57 |
| PLGGLGYV | 0.543 ± 0.73 |
| PLHWS | 0.416 ± 0.3 |
| PLLQKSWIRALSFFVNHTS | 0.126 ± 0.51 |
| PLMWS | 0.251 ± 0.29 |
| PLRASRTMTSGKLQPNLRRK | 0.035 ± 0.76 |
| PLSVNLKYVYNLVVDLFGLP | 2.61 ± 0.19 |
